Assay results reported in patent publication US11732029B2, “Methods and compositions for the treatment of wounds” (The University of Chicago, priority 2017, dated 2023).
“Also recorded” adds a separate entry of the source.

Experiments:
[1] = biological target: T1, VEGF-A121 (Homo sapiens, UniProt P15692); assay: Surface plasmon resonance, vWF against GF; type: binding; set-up: All growth factors (GFs) and chemokines were purchased in their mature forms; purchased PeproTech; host or cells: Escherichia coli; settings: vWF immobilized, VEGF-A121 50-800 nM
T1 sequence (P15692 27-147 isoform P15692-9 limits assumed): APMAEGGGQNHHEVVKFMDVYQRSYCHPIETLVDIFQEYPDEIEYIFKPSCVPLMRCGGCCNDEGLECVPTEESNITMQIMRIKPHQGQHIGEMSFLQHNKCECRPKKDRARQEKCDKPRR
Protocol: (§1) SPR assays were performed as described previously2. In brief, measurements were made with a Biacore X100 SPR system or Biacore 3000 SPR system (GE Healthcare). Plasma-derived vWF was immobilized via amine coupling on a C1 chip (GE Healthcare) for 2000 resonance units (RU) according to the manufacturer's instructions. Recombinant human VEGF-A165, VEGF-A121, or PDGF-BB was flowed at increasing concentrations in the running buffer at 30 μL/min. The sensor chip was regenerated with glycine at pH 2 for every cycle. Specific binding of GFs to vWF was calculated automatically using the response to a non-functionalized channel as a reference. Binding curves were fitted using BIAevalution software (GE Healthcare). vWF-VEGF-A165 binding results were fitted with Langmuir binding kinetics (1:1 binding with drifting baseline Rmax local). vWF-PDGF-BB binding results were fitted with heterogeneous ligand-parallel reaction.

[2] = biological target: T2, VEGF-A165 (Homo sapiens, UniProt P15692); assay: Surface plasmon resonance, vWF against GF; type: binding; settings: SPR; vWF immobilized; 1:1 Langmuir fit, single KD; read-out: dissociation constant (KD value) for VEGF-A165
T2 construct: All growth factors (GFs) and chemokines were purchased in their mature forms; purchased PeproTech; host or cells: Escherichia coli
T2 sequence (P15692 27-191 isoform P15692-4 limits assumed): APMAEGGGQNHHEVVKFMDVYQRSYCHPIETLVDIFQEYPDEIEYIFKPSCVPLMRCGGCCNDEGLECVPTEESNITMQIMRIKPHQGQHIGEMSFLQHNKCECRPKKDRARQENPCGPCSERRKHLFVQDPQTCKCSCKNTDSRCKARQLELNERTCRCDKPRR
Protocol: as §1

For “vWF: human plasma-derived von Willebrand factor (EMD Millipore)”, the “binding to VEGF-A121 by SPR” value [1] was “did not show significant binding; also recorded: No binding was observed” and the Kd [2] was 27 nM.
